Data on one substance can be found in US20250249113.

Series [1] deals with Compound 3: AF-Arg-Phe-Lys(PEG4-Mal-Cys-Ac)-OH.
Series [2] relates to Compound 12: DM1-Mcc-Cit-Lys(PEG5-Ma-Cys-Ac)-Tyr-OH.
The test system of series [3] is Compound 6: DM1-Mal-Phe-Cit-Lys(PEG4-Mal-Cys-Ac)-Phe-OH.
The subject of series [4] is Compound 8: AF-Cit-Lys(PEG4-Mal-Cys-Ac)-Phe-OH.
Series [5] concerns Compound 11: DM1-Mcc-Phe-Cit-Lys(PEG5-Ma-Cys-Ac)-Tyr-OH.
Series [6] has as its system Compound 5: DM1-Mal-Phe-Lys-Lys(PEG4-Mal-Cys-Ac)-Phe-OH.
Series [7] concerns Compound 1: AF-Arg-Lys(PEG4-Mal-Cys-Ac)-Phe-OH.
The subject of series [8] is Compound 7: DM1-Mal-Phe-Cit-Phe-Lys(PEG4-Mal-Cys-Ac)-OH.

recombinant human Cathepsin B: the Ratio (T1/2 Compound/T1/2 Reference), Cat B-induced cleavage came out at 0.11 in series [1]; 4e-05 in series [2]; 0.02 in series [3]; 0.09 in series [4]; 0.005 in series [5]; 0.05 in series [6]. For the same substance, the Ratio (T1/2 Compound/T1/2 Reference), Cat B-induced cleavage was determined as 0.12 in series [7] and 0.09 in series [8]. The T1/2 Compound (min), Cat B-induced cleavage in series [1] was 1.4 min; in series [2], 0.0004 min; in series [3], 0.3 min; in series [4], 1.1 min; in series [5], 0.06 min; in series [6] it was 0.6 min. Moreover, the T1/2 Compound (min), Cat B-induced cleavage is 1.5 min in series [7] and 1.2 min in series [8]. In addition, the “T1/2 of cleavage by exo-Cat B” value is “compounds 11 and 12 are spontaneously cleaved by exo-Cat B (T1/2≤1 min)” in series [2]; “compounds 11 and 12 are spontaneously cleaved by exo-Cat B (T1/2≤1 min)” in series [5].
